± gives the standard deviation of the averaged measurements.
Test system: Saccharomyces cerevisiae
Experiment: protein stability index of tFT-peptide fusion (C-terminal peptide) (PSI (0-1 scale)); higher = more stable (slower turnover)
Details: genetic background: wild type; temperature: 30 C
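Note: PSI is a weighted mean of sequencing reads over stability bins, variants kept only with over 10 reads, mCherry proximal and sfGFP distal, peptide attached via GGGS linker.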

In order of falling protein stability index:
1. LRIGTCYCGVAW  0.814 ± 0.049
2. LSWLSLSSNSRL  0.798 ± 0.019
3. LSSITLTYVSDF  0.781 ± 0.12
4. LSSCPRIMVPIT  0.777 ± 0.11
5. LTLCYGRLPPRL  0.771 ± 0.022
6. LVGSGLFGWGWN  0.769 ± 0.073
7. LRFWCFGDVCPV  0.754 ± 0.057
8. LVGIYYEHPISP  0.754 ± 0.13
9. LRLRGCSATVPG  0.752 ± 0.063
10. LTSSLSLSFPPL  0.749 ± 0.039
11. LVHDQKFSCNWL  0.74 ± 0.031
12. LTGRAVCTDKLK  0.734 ± 0.083
13. LRVTPYTPRSYP  0.732 ± 0.058
14. LTVLGSGNLTRS  0.729 ± 0.029
15. LRGPRTSTPLST  0.714 ± 0.036
16. LSPPSSPPPTPS  0.714 ± 0.076
17. LQWSPQAELEGT  0.712 ± 0.043
18. LSPPPLPPVPSP  0.712 ± 0.015
19. LVFREISSRHEI  0.711 ± 0.018
20. LSFFPPPLPPSS  0.71 ± 0.044
21. LQRVPTDAVPDC  0.7074 ± 0.0044
22. LSVSSLMFNWRS  0.707 ± 0.02
23. LSNATPAHAGKP  0.706 ± 0.13
24. LTAKDSRGLFRP  0.706 ± 0.012
25. LVLSGFSLFPVP  0.705 ± 0.034
26. LSGYTLRRIISQ  0.704 ± 0.063
27. LSPGRPPRPPRR  0.702 ± 0.041
28. LRLSSFSFSRLS  0.701 ± 0.16
29. LTASPPRLPPFP  0.701 ± 0.0081
30. LRNCSVSGSIEW  0.699 ± 0.019
31. LRSIQVHLGSTA  0.6992 ± 0.0043
32. LVFHSLCFFPLS  0.694 ± 0.014
33. LVRLVGVGLEAV  0.694 ± 0.055
34. LSSLPSTFPPLP  0.692 ± 0.029
35. LRPTPLPRPSPA  0.691 ± 0.024
36. LSALQQSSAPSI  0.691 ± 0.057
37. LVLLTRSASLLG  0.691 ± 0.094
38. LRPPPPPAQPFV  0.69 ± 0.033
39. LSWSYTGVCRSE  0.69 ± 0.06
40. LRRVGKLRESGS  0.688 ± 0.018
41. LVRFRADEPRGG  0.688 ± 0.058
42. LSLVSGWVIPGV  0.687 ± 0.051
43. LVMTYGFTSVSR  0.687 ± 0.07
44. LRETDGSGQYVR  0.686 ± 0.014
45. LTPLPSRPPPLP  0.683 ± 0.087
46. LVAFKGNSMGRE  0.681 ± 0.019
47. LSPLPTPLRPNS  0.68 ± 0.025
48. LSCSLSWFFSSV  0.679 ± 0.083
49. LSLPPLRPPYPP  0.678 ± 0.091
50. LVLTLAPWILFD  0.6784 ± 0.0015
51. LRGACWLARTRT  0.677 ± 0.018
52. LSVLNTQFGFGS  0.6751 ± 0.0054
53. LSGWIRTLLPET  0.674 ± 0.047
54. LSYSFGCEFLWL  0.674 ± 0.033
55. LVCPLFCSRWWV  0.674 ± 0.1
56. LTARPPTLSSPL  0.6729 ± 0.0043
57. LRGEGPGRKGGA  0.67 ± 0.05
58. LSFHSYLSPFYL  0.664 ± 0.051
59. LSVQFVSQHTRV  0.664 ± 0.024
60. LTYFCTLPATLK  0.663 ± 0.022
61. LRQEVVRPEWYM  0.66 ± 0.054
62. LQHRHSTSPRPT  0.657 ± 0.037
63. LVGGGEGWVVLG  0.651 ± 0.09
64. LVFGVSRRLGRG  0.65 ± 0.01
65. LVAATGRCIKKP  0.649 ± 0.061
66. LRCVPAVFFACK  0.647 ± 0.045
67. LSYCVGFFSLVG  0.6459 ± 0.0012
68. LSFLSDVRHIRE  0.643 ± 0.1
69. LRPSLPCPPFCP  0.641 ± 0.057
70. LVRHCIPIIPPP  0.638 ± 0.026
71. LRVVWNLSSRAI  0.636 ± 0.059
72. LTKPPHERREKS  0.635 ± 0.019
73. LRGVACCSPILG  0.631 ± 0.036
74. LRPFSRVLRARS  0.628 ± 0.019
75. LVGLGGCLVGLR  0.6277 ± 0.0027
76. LVRGRFVVFSGM  0.626 ± 0.034
77. LRPLPPRHPPAP  0.624 ± 0.069
78. LSPPPPPLPPPL  0.622 ± 0.12
79. LSTPFFFVPLTL  0.621 ± 0.007
80. LRRKSLHFSFPF  0.618 ± 0.054
81. LVILWDVLSVVP  0.612 ± 0.049
82. LVCMGCCVRTYT  0.608 ± 0.037
83. LRSPAILFSFAF  0.602 ± 0.043
84. LRRSRQGGSGRR  0.6 ± 0.044
85. LVLVGISCVKGR  0.597 ± 0.02
86. LVGLVCDFVFVL  0.589 ± 0.007
87. LVRFTCRFFVGV  0.589 ± 0.0089
88. LVPWSGCSALLV  0.585 ± 0.014
89. LRVRLSVLLPLD  0.578 ± 0.0093
90. LRERKVYLVKIK  0.575 ± 0.006
91. LRSPGSHIVRLT  0.569 ± 0.035
92. LTTFLLTRIVGA  0.567 ± 0.035
93. LRHWKALVTYLL  0.566 ± 0.052
94. LTLADWYRIPVI  0.558 ± 0.051
95. LRYLEGWWVLRW  0.554 ± 0.063
96. LRLLYGYWGKFL  0.547 ± 0.0072
97. LRWGLFSLAWVT  0.5437 ± 0.00065
98. LVIVFDLGNMLH  0.538 ± 0.038
99. LSSLLFFLSWVV  0.529 ± 0.018
100. LSTCRYMLRLAY  0.5233 ± 0.0021
101. LVALCGYTLRLR  0.487 ± 0.076

From the supplement of paper PMC10724198
